The target of assay [1] is T1, human Trop-2 on Trop-2 positive cancer cells (human, UniProt P09758 27-323).
T1 sequence (looked up): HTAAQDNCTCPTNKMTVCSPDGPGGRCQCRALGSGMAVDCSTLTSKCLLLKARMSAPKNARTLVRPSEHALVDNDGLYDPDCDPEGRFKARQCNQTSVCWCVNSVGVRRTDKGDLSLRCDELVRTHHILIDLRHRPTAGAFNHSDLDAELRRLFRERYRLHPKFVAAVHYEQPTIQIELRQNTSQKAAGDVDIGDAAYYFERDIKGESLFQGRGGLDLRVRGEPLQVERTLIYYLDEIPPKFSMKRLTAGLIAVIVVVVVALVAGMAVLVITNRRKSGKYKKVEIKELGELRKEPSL
As to the kind of experiment: cell-based or functional assay.

Assay [2] addresses T2, human Trop-2-ECD-6His fusion protein (human, UniProt P09758 27-274).
T2 construct: Expressed in a human 293 cell line; also called huTrop-2; human Trop-2 antigen
T2 sequence: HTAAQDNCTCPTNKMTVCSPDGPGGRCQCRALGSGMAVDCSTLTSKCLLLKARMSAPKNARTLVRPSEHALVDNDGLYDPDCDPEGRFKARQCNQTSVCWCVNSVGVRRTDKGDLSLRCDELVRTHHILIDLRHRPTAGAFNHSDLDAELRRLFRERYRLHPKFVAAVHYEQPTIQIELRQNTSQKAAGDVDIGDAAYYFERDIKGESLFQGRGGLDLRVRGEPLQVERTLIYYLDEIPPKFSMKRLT
As to the kind of experiment: antigen binding ELISA on immobilized human Trop-2-ECD-6His. In general terms: ELISA stands for enzyme-linked immunosorbent assay.

The target in assay [3] is T3, human EPCAM-His (human, UniProt P16422 24-265).
T3 construct: also called hEPCAM
T3 sequence (looked up): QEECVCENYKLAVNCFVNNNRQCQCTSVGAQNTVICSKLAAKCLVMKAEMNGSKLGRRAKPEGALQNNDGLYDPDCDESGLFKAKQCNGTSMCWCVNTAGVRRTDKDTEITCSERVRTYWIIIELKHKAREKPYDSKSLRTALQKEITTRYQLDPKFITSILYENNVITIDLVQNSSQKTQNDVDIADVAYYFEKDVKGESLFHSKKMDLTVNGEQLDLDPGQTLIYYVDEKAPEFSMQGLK
As to the kind of experiment: ELISA on coated antigen, one antibody dilution (concentration not given), detected by GAH-HRP; y axis without a label (OD450 by the text).

Assay [4] addresses T4, mouse Trop-2-His (mouse, UniProt Q8BGV3 25-270).
T4 sequence (looked up): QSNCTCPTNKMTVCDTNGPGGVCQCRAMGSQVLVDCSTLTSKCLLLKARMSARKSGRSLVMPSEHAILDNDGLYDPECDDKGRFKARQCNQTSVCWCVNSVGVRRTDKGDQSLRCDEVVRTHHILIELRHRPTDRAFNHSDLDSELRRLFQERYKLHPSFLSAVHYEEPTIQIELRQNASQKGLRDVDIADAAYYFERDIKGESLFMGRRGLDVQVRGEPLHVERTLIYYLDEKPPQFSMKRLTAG
The description is as above.

Assay [5] concerns the target T1, human Trop-2 on Trop-2 positive cancer …. In words: cell-based or functional assay. This is another data set of the same source.
The target is the same in assay [6]. In words: cell-based or functional assay. This is another data set of the same source.
In assay [7] the target is T2, human Trop-2-ECD-6His fusion protein. As to the kind of experiment: antigen binding ELISA on immobilized human Trop-2-ECD-6His. This is another data set of the same source.

Numbering of substitutions follows the chain as printed. Where two headings read alike, the source gives them in different places.

B1: #125-1-5 mouse H14-4/L3-4 (antibody, V domains shown)
VH: QIQLVQSGPELVKPGASVKMSCKASGYTFTTYVIHWVKQKPGQGLEWIGYINPNNDGTKYNEKFKGKATLISDKSSTTAYMEVRGLTSEDSAVYYCARPHFETHAMDYWGQGTSVTVSS
VL: DIQMTQSPSSFSVSLGDSVTITCKASEDIFNRLAWYQQKPGNAPRLLISGATSLETGVPSRFSGGGSGKEYTLSITSLQNEDVATYYCQQYWNTWTFGGGTKLEIK
Regarding B1, the “Internalization rate (flow cytometry, MDA-MB-468 cells)” value (from here on “Internalization rate”) in assay [1] is 5.5%.

B2: humanized IgG #118-2-5 HuA/LuX (antibody, V domains shown)
VH: QVQLQESGPGLVKPSETLSLTCTVSGFSLTSYGVNWIRQPPGKGLEWIGVMWAGGSTNYNSALMSRVTISVDTSKNQFSLKLSSVTAADTAVYYCARDENWDGAWFAYWGQGTLVTVSS
VL: DIVMTQSPDSLAVSLGERATINCKSSQSLLNSGTRKNYLAWYQQKPGQPPKLLIYWASSRESGVPDRFSGSGSGTDFTLTISSLQAEDVAVYYCKQSYNLFTFGGGTKVEIK
notes: Full-length IgG expressed in HEK293-6E cells; also called 1 (HuA/LuX); IgG HuA/LuX
For B2, the EC50 in assay [2] turned out to be 0.39 nM; in assay [7], 0.142 nM. The binding result in assay [3] and in assay [4] was “no binding” each time. For the same molecule, the “Internalization rate” value in assay [5] was 70.9%; in assay [6], 96.8%.

B3: humanized IgG #118-2-5 HuD/LuY (antibody, V domains shown)
VH: B2 VH with Q5K, K13A, L20I, I48L, V67L, V71K, F78V, T86Q, V92M
VL: B2 VL with D9S, I21M, N22S, Y55S, L84V, V89L
notes: Full-length IgG expressed in HEK293-6E cells; also called 8 (HuD/LuY)
On to B3, for which the EC50 in assay [2] turned out to be 0.06 nM; in assay [7], 0.005 nM. The binding result in assay [3] and in assay [4] was “no binding” throughout. In addition, the results for the “Internalization rate” value in assay [5] and in assay [6] were 13.2% and 57.3%, respectively.

B4: humanized IgG #118-2-5 HuC/LuX (antibody, V domains shown)
VH: QVQLQESGPGLVKPSETLSLTCTVSGFSLTSYGVNWIRQPPGKGLEWIGVMWAGGSTNYNSALMSRLSISKDNSKSQVFLKMNSLQTDDTGMYYCARDENWDGAWFAYWGQGTLVTVSS
VL: B2 VL
notes: Full-length IgG expressed in HEK293-6E cells; also called 3 (HuC/LuX)
As for B4, the binding result in assay [3] and in assay [4] was “no binding” throughout. In assay [5], the “Internalization rate” value worked out at 0.9%. Moreover, in assay [7], it took 0.034 nM to reach a half-maximal effect (EC50).

B5: humanized IgG #118-2-5 Hu(A3)/LuX (antibody, V domains shown)
VH: B2 VH with F78V
VL: B2 VL
notes: Second round of humanization
Take B5: a half-maximal effect in assay [2] (EC50) was put at 0.31 nM. Moreover, the “Internalization rate” value in assay [6] stood at 55.8%.

B6: humanized IgG #118-2-5 HuB/LuX (antibody, V domains shown)
VH: B2 VH with Q5K, E6Q, K13A, E16Q, T17S, L20I
VL: B2 VL
notes: Full-length IgG expressed in HEK293-6E cells; also called 2 (HuB/LuX)
Regarding B6, the binding result in assay [3] and in assay [4] was “no binding” each time. For the same molecule, the “Internalization rate” value in assay [5] worked out at 75%. In assay [7], this molecule showed a concentration for a half-maximal effect (EC50) of 0.164 nM.

B7: humanized IgG #118-2-5 HuA/Lu(X5) (antibody, V domains shown)
VH: B2 VH
VL: B2 VL with L84V
notes: Second round of humanization
B7 gave an EC50 in assay [2] of 0.31 nM. In assay [6], the “Internalization rate” value was found to be 19.7%.

B8: humanized IgG #118-2-5 HuA/Lu(X1) (antibody, V domains shown)
VH: B2 VH
VL: B2 VL with D9S
notes: Second round of humanization
With B8, the concentration giving a half-maximal response (EC50) in assay [2] worked out at 0.26 nM. Further, the “Internalization rate” value in assay [6] is 48.9%.

B9: humanized IgG #118-2-5 HuD/LuX (antibody, V domains shown)
VH: B2 VH with Q5K, K13A, L20I, I48L, V67L, V71K, F78V, T86Q, V92M
VL: B2 VL
notes: Full-length IgG expressed in HEK293-6E cells; also called 4 (HuD/LuX)
For the molecule B9, the binding result in assay [3] and in assay [4] was “no binding” each time. Further, the “Internalization rate” value in assay [5] is -7.8%. In assay [7], this molecule displayed an EC50 of 0.011 nM.

B10: humanized IgG #118-2-5 Hu(A4)/LuX (antibody, V domains shown)
VH: B2 VH with T86Q
VL: B2 VL
notes: Second round of humanization
Turning to B10, the 50% effective concentration (EC50) in assay [2] amounted to 0.39 nM. Moreover, the “Internalization rate” value in assay [6] was determined as 52.8%.

B11: humanized IgG #118-2-5 HuA/LuY (antibody, V domains shown)
VH: B2 VH
VL: B2 VL with D9S, I21M, N22S, Y55S, L84V, V89L
notes: Full-length IgG expressed in HEK293-6E cells
For B11, the binding result in assay [3] and in assay [4] was “no binding” throughout. Further, the “Internalization rate” value in assay [5] is -14.7%. For the same molecule, the EC50 in assay [7] came to 0.016 nM.

B12: humanized IgG #118-2-5 HuB/LuY (antibody, V domains shown)
VH: B2 VH with Q5K, E6Q, K13A, E16Q, T17S, L20I
VL: B2 VL with D9S, I21M, N22S, Y55S, L84V, V89L
notes: Full-length IgG expressed in HEK293-6E cells; also called 6 (HuB/LuY)
In the case of B12, the binding result in assay [3] and in assay [4] was “no binding” each time. Moreover, in assay [5], the “Internalization rate” value is -8.5%. This molecule also registered a concentration for a half-maximal effect (EC50) in assay [7] of 0.004 nM.

B13: humanized IgG #118-2-5 HuA/Lu(X4) (antibody, V domains shown)
VH: B2 VH
VL: B2 VL with Y55S
notes: Second round of humanization
With B13, the EC50 in assay [2] came out at 0.12 nM. In assay [6], the “Internalization rate” value is 61.5%.

B14: humanized IgG #118-2-5 HuA/Lu(X2) (antibody, V domains shown)
VH: B2 VH
VL: B2 VL with I21M
notes: Second round of humanization
On to B14, for which it took 0.36 nM to reach a half-maximal effect in assay [2] (EC50). Moreover, the “Internalization rate” value in assay [6] stood at 43.2%.

B15: humanized IgG #118-2-5 HuC/LuY (antibody, V domains shown)
VH: B4 VH
VL: B2 VL with D9S, I21M, N22S, Y55S, L84V, V89L
notes: Full-length IgG expressed in HEK293-6E cells; also called 7 (HuC/LuY)
Consider B15, for which the binding result in assay [3] and in assay [4] was “no binding” each time. In assay [5], the “Internalization rate” value turned out to be 3%. The molecule further showed an EC50 in assay [7] of 0.014 nM.

B16: humanized IgG #118-2-5 Hu(A2)/LuX (antibody, V domains shown)
VH: B2 VH with V71K
VL: B2 VL
notes: Second round of humanization
For B16, the EC50 in assay [2] is 0.37 nM. Besides, the “Internalization rate” value in assay [6] worked out at 14.6%.

B17: humanized IgG #118-2-5 HuA/Lu(X6) (antibody, V domains shown)
VH: B2 VH
VL: B2 VL with V89L
notes: Second round of humanization
In assay [2], B17 displayed a concentration giving a half-maximal response (EC50) of 0.26 nM. The “Internalization rate” value in assay [6] was determined as 46.4%.

B18: humanized IgG #118-2-5 Hu(A5)/LuX (antibody, V domains shown)
VH: B2 VH with V92M
VL: B2 VL
notes: Second round of humanization
Take B18: in assay [2], the half-maximal effective concentration (EC50) came to 0.34 nM. The “Internalization rate” value in assay [6] worked out at 11.5%.

B19: #118-2-5 mouse H4-2/L3-3 (antibody, V domains shown)
VH: QVQLKQSGPGLVAPSQSLSITCTVSGFSLTSYGVNWIRQPPGKGLEWLGVMWAGGSTNYNSALMSRLSISKDNSKSQVFLKMNSLQTDDTGMYYCARDENWDGAWFAYWGQGTLVTVS
VL: DIQMTQSPSSLAVSAGEKVTMSCKSSQSLLNSGTRKNYLAWYQQKPGQSPKLLISWASSRESGVPDRFTGSGSGTDFTLTISSVQAEDLAVYYCKQSYNLFTFGGGTKLELK
notes: The label H4-2/L3-3 is not explained
In the case of B19, the binding result in assay [3] and in assay [4] was “no binding” throughout. Moreover, the “Internalization rate” value in assay [5] came to 28.4%. Further, in assay [7], a half-maximal response (EC50) required 0.024 nM.

One may read the EC50 as the concentration giving half of the maximal effect. High values mean weaker potency, low ones greater potency.

Source of the values: US20230235080A1, “TROPHOBLAST CELL-SURFACE ANTIGEN-2 (TROP-2) ANTIBODIES” (Bionecure Therapeutics, Inc., priority 2020, published 2023).
